Experiment [1] relates to CHO-K1 cells expressing human α11. As to the kind of experiment: Cell adhesion inhibition (xCelligence), type I collagen. Format: cell-based. The conditions noted are these: Yes/No. The method in brief: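 CHO-K1 cells expressing human α11 (0.6×10^6 cells/mL) were preincubated with mAbs across a concentration range for 20 min at 37° C, then seeded on wells coated with 100 ng/mL type I collagen and blocked with 3% BSA. Impedance-based adhesion was recorded over 6 h, and maximum adhesion was compared with untreated control.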

In experiment [2] the target is T1, I domain of α11β1 (Homo sapiens, UniProt Q9UKX5).
T1 construct: An in-house generated I domain of α11β1 was used; made in house
T1 sequence (Q9UKX5 164-345 limits assumed): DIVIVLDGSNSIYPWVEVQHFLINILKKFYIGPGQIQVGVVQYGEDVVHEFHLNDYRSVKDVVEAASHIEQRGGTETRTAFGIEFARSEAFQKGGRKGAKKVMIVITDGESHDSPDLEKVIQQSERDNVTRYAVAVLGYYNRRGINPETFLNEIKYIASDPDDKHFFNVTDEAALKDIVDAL
The experiment in a line: ELISA binding to in-house generated I domain of α11β1. The conditions noted are these: Yes/No. The method in brief: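 Plate-coated antigen (0.25 μg/mL, overnight 4° C) probed with antibody dilution series 1 h at room temperature, then biotinylated anti-IgG and streptavidin-HRP, 1 h each. TMB substrate 5 min, stopped, absorbance at 450 nm; in-house I domain of α11β1 used as target.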
Background: In an ELISA, binding on a coated surface is turned into a signal by an enzyme label.

For experiment [3], the target named is mouse α11β1 (Mus musculus, UniProt P61622). The experiment in a line: ELISA binding to recombinant mouse α11β1. The conditions noted are these: binding Yes/No. The essentials: (§1)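 Antibodies at a range of concentrations bind plate-immobilized recombinant α11β1 (human or mouse, 0.25 μg/mL coating) for 1 h at room temperature.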
Experiment [4] has as its system myofibroblasts (MF). As to the kind of experiment: FACS antibody binding to myofibroblasts. The conditions noted are these: binding Yes/No. Further details: species or system human. The method in brief:
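Human pulmonary fibroblasts, serum-starved 24 h then TGFβ-1-treated 72 h to give myofibroblasts, were blocked with heat-inactivated FBS and stained with anti-α11 antibodies, then PE secondary, 30 min each at 4 °C, before 1% PFA fixation. Binding read by flow cytometry as PE geometric MFI of single cells.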

The target of experiment [5] is human α11β1 (Homo sapiens, UniProt Q9UKX5). The experiment in a line: ELISA binding to recombinant human α11β1. The conditions noted are these: binding Yes/No. The method in brief: as §1
Experiment [6] concerns human pulmonary fibroblasts (HPFs). The experiment in a line: FACS antibody binding to human pulmonary fibroblasts. Conditions: binding Yes/No.

Chain of mouse α11β1 (P61622 23-1141 limits assumed): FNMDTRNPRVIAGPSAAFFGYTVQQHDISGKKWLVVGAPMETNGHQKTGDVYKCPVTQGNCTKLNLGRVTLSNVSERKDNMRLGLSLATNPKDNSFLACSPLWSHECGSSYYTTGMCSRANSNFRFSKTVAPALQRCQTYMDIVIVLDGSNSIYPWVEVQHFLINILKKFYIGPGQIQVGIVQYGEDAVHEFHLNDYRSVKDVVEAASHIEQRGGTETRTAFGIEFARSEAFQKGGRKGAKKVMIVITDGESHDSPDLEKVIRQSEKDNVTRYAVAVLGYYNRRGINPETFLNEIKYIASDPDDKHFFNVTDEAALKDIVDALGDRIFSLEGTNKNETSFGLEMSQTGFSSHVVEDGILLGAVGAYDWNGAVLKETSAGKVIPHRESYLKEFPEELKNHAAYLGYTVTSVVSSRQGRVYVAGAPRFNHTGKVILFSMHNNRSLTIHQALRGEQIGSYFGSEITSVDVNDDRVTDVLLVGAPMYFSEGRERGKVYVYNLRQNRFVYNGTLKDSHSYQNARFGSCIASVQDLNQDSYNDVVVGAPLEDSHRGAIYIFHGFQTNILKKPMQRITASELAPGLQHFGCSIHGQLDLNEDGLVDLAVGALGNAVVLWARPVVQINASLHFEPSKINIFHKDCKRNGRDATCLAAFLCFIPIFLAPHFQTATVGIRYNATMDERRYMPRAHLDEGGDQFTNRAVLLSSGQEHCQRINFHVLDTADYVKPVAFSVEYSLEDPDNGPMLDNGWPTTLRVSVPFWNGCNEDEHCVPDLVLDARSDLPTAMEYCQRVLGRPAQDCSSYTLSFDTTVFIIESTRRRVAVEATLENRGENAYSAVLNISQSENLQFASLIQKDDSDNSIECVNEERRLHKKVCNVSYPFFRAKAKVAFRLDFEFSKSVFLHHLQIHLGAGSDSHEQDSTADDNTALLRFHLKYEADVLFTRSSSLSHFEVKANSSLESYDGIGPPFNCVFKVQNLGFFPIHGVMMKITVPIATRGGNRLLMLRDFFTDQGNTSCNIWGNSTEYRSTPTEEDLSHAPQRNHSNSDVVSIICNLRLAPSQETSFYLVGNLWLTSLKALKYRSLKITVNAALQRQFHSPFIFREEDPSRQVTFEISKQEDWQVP
Chain of mouse α11β1 (P09055 21-728 partner limits assumed): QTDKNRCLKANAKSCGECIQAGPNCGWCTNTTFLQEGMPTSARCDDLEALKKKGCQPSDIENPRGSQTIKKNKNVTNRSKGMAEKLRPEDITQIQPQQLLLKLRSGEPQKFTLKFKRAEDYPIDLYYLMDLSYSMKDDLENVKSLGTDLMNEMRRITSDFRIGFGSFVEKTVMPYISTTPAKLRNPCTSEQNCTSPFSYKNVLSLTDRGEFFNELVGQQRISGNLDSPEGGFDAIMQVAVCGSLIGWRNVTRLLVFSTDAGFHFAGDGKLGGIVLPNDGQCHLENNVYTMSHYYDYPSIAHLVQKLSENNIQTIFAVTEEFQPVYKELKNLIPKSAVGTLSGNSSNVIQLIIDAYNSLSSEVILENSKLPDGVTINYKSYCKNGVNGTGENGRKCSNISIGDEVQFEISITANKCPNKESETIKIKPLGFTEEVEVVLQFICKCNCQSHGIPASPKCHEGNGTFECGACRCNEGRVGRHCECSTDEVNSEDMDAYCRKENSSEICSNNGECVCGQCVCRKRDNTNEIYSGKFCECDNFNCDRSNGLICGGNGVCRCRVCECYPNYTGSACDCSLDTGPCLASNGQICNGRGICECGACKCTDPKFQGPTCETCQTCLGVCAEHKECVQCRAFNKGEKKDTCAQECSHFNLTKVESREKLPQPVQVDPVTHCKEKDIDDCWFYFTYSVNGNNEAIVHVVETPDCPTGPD
Chain of human α11β1 (Q9UKX5 23-1141 limits assumed): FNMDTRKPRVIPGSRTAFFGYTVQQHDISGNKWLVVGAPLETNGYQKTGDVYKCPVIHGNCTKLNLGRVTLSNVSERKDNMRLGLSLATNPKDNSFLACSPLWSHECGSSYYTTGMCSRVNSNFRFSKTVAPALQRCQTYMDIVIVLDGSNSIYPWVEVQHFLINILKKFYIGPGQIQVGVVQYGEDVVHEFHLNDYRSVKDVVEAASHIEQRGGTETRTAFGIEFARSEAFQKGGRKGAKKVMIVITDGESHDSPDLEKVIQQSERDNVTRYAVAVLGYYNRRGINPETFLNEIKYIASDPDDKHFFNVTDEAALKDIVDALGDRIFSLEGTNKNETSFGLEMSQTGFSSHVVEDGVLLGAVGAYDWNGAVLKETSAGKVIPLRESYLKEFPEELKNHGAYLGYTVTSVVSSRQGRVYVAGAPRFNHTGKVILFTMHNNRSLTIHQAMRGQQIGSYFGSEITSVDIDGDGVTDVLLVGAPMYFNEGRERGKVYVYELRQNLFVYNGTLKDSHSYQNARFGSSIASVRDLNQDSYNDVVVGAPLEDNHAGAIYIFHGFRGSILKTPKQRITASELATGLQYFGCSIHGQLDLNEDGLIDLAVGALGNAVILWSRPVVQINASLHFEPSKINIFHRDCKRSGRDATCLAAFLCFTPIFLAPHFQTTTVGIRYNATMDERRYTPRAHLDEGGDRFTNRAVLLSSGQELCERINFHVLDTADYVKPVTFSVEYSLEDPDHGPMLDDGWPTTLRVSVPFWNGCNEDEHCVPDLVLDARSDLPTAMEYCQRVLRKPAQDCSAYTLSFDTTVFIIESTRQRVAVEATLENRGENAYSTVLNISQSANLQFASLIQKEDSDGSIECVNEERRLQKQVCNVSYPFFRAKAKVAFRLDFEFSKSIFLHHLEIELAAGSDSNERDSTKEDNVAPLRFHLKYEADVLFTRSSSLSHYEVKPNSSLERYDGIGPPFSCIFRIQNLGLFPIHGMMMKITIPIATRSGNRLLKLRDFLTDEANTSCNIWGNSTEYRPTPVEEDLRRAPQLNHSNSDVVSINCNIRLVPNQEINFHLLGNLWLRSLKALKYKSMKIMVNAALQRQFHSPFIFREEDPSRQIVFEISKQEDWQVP
Chain of human α11β1 (P05556 21-728 partner limits assumed): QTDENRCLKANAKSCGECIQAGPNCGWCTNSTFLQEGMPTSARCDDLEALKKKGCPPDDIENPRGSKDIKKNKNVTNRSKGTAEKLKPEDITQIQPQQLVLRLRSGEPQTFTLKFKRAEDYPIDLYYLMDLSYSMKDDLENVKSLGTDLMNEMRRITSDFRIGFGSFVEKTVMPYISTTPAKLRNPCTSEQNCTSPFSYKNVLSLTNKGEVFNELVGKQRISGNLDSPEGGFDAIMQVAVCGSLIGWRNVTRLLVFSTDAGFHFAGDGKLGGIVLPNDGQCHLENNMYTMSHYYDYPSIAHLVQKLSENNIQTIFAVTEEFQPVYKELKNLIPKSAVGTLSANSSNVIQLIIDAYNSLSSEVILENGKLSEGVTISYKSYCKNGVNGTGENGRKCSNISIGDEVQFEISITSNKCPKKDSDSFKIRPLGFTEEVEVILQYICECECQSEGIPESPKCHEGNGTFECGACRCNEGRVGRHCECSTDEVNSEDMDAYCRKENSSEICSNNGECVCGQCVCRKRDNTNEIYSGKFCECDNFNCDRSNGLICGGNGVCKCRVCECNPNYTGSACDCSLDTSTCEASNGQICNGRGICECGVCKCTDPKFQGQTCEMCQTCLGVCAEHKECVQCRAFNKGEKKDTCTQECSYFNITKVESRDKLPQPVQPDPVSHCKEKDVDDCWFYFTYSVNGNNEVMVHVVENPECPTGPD

B1: 6C7: rabbit anti-α11β1 mAb; heavy chain SEQ ID NO: 185, light chain SEQ ID NO: 186 (antibody)
heavy: METGLRWLLLVAVLKGVQCQQQLEESGGGLVKPGGTLTLTCKASGIDFSSYYYMCWVRQAPGKGLELIVCIYTSSGGTWYASWVNGRLTISRSTSLNTVDLKMTSLTAADTATYFCARGVYSGSSDYPTRLDLWGQGTLVTVSLGQPKAPSVFPLAPCCGDTPSSTVTLGCLVKGYLPEPVTVTWNSGTLTNGVRTFPSVRQSSGLYSLSSVVSVTSSSQPVTCNVAHPATNTKVDKTVAPSTCSKPMCPPPELPGGPSVFIFPPKPKDTLMISRTPEVTCVVVDVSQDDPEVQFTWYINNEQVRTARPPLREQQFNSTIRVVSTLPIAHQDWLRGKEFKCKVHNKALPAPIEKTISKARGQPLEPKVYTMGPPREELSSRSVSLTCMINGFYPSDISVEWEKNGKAEDNYKTTPTVLDSDGSYFLYSKLSVPTSEWQRGDVFTCSVMHEALHNHYTQKSISRSPGK
light: MDTSTSTALLGLLLLWLTGARCAIEMTQSPPSLSASVGETVRIRCLASEDIYSGISWYQQKPEKPPTLLISGASNLESGVPPRFSGGGSGTDYTLTIGGVQAEDVATYYCLGGYSFSSTGLTFGAGTKVEIKRDPVAPSVLLFPPSKEELTTGTATIVCVANKYFPDVTVTWEVDGTTQTTGIENSKTPQNSADCTYNLSSTLTLTSTQYNSHKEYTCKVTQGTTSVVQSFNRGDC
As to B1, the “Inhibition of CHO-K1 adhesion to collagen” value (“Inhibition” below) in experiment [1] is given as “Yes”. Further, the “I Domain binding” value in experiment [2] is listed as “No”. Also, in experiment [3], the “Murine α11β1 ELISA” value is on record as “No”. In addition, the “MF FACS” value in experiment [4] is “Yes”. The “Human α11β1 ELISA” value in experiment [5] is recorded as “Yes”. In experiment [6], the “HPF FACS” value is recorded as “No”.

B2: 6F9: rabbit anti-α11β1 mAb; heavy chain SEQ ID NO: 183, light chain SEQ ID NO: 184 (antibody)
heavy: METGLRWLLLVAVLKGVQCQSLEESGGDLVKPGASLTLTCTASGSSFSSTYWNCWVRQAPGKGLEWIACINAGSGTTYYASWAKGRFTVSKTSSTTVTLQMTSLTAADTATYFCTRDSDGRFSSGYYFNLWGPGTLVTVSSGQPKAPSVFPLAPCCGDTPSSTVTLGCLVKGYLPEPVTVTWNSGTLTNGVRTFPSVRQSSGLYSLSSVVSVTSSSQPVTCNVAHPATNTKVDKTVAPSTCSKPMCPPPELPGGPSVFIFPPKPKDTLMISRTPEVTCVVVDVSQDDPEVQFTWYINNEQVRTARPPLREQQFNSTIRVVSTLPIAHQDWLRGKEFKCKVHNKALPAPIEKTISKARGQPLEPKVYTMGPPREELSSRSVSLTCMINGFYPSDISVEWEKNGKAEDNYKTTPTVLDSDGSYFLYSKLSVPTSEWQRGDVFTCSVMHEALHNHYTQKSISRSPGK
light: MDTRAPTQLLGLLLLWLPGATFAQVLTQTASPVSAAVGGTVTINCQSSQSVYDNNWLAWYQQKPGQPPKLLIDDASKLTSGVSSRFKGSGSGTQFTLTISGVQCDDAATYYCQGAYYSSGWYWAFGGGTEVVVKGDPVAPTVLIFPPAADQVATGTVTIVCVANKYFPDVTVTWEVDGTTQTTGIENSKTPQNSADCTYNLSSTLTLTSTQYNSHKEYTCKVTQGTTSVVQSFNRGDC
In the case of B2, in experiment [1], the “Inhibition” value is given as “Yes”. The “I Domain binding” value in experiment [2] is on record as “No”. For the same molecule, the “Murine α11β1 ELISA” value in experiment [3] is recorded as “No”. For the same molecule, in experiment [4], the “MF FACS” value is listed as “Yes”. The “Human α11β1 ELISA” value in experiment [5] is listed as “Yes”. Besides, the “HPF FACS” value in experiment [6] is on record as “No”.

B3: 6G4: rabbit anti-α11β1 mAb; heavy chain SEQ ID NO: 181, light chain SEQ ID NO: 182 (antibody)
heavy: METGLRWLLLVAVLKGVQCQQQLEESGGGLVKPGGTLTLTCKASGVALNPYYYMCWVRQAPGKGLEWIACVDADSSGSTYYASWAKGRFTISKTSSTTVTLKMTSLTAADTATYFCARESVDYSSVGIGYVHGTDGLWGPGTLVTVSSGQPKAPSVFPLAPCCGDTPSSTVTLGCLVKGYLPEPVTVTWNSGTLTNGVRTFPSVRQSSGLYSLSSVVSVTSSSQPVTCNVAHPATNTKVDKTVAPSTCSKPMCPPPELPGGPSVFIFPPKPKDTLMISRTPEVTCVVVDVSQDDPEVQFTWYINNEQVRTARPPLREQQFNSTIRVVSTLPIAHQDWLRGKEFKCKVHNKALPAPIEKTISKARGQPLEPKVYTMGPPREELSSRSVSLTCMINGFYPSDISVEWEKNGKAEDNYKTTPTVLDSDGSYFLYSKLSVPTSEWQRGDVFTCSVMHEALHNHYTQKSISRSPGK
light: MDTRAPTQLLGLLLLWLPGARCADIVVTQTPSSVSAAVGGTVTIKCQASQSISNYFSWYQQKPGQPPKLLIYRASTLASGVPSRFKGSGSGTEFTLTISDLECADAATYYCQCTYGRSNSNFFYGFGGGTEVVVKGDPVAPTVLIFPPAADQVATGTVTIVCVANKYFPDVTVTWEVDGTTQTTGIENSKTPQNSADCTYNLSSTLTLTSTQYNSHKEYTCKVTQGTTSVVQSFNRGDC
Turning to B3, the “Inhibition” value in experiment [1] is reported as “Yes”. Moreover, the “I Domain binding” value in experiment [2] is given as “No”. Also, in experiment [3], the “Murine α11β1 ELISA” value is reported as “No”. In experiment [4], the “MF FACS” value is “Yes”. The “Human α11β1 ELISA” value in experiment [5] is listed as “Yes”. Besides, in experiment [6], the “HPF FACS” value is listed as “No”.

B4: 4E1: rabbit anti-α11β1 mAb; heavy chain SEQ ID NO: 195, light chain SEQ ID NO: 196 (antibody)
heavy: METGLRWLLLVAVLKGVQCQSLEESGGDLVKPGTSLTLSCTASGFSFGSYYYMCWVRQAPGKGLEWIACIDVGSSGDTYYASWVNGRFTISKTSSTTVTLQMTSLTAADTATYFCARDDTAAGGFGNLELWGPGTLVTVSSGQPKAPSVFPLAPCCGDTPSSTVTLGCLVKGYLPEPVTVTWNSGTLTNGVRTFPSVRQSSGLYSLSSVVSVTSSSQPVTCNVAHPATNTKVDKTVAPSTCSKPMCPPPELPGGPSVFIFPPKPKDTLMISRTPEVTCVVVDVSQDDPEVQFTWYINNEQVRTARPPLREQQFNSTIRVVSTLPIAHQDWLRGKEFKCKVHNKALPAPIEKTISKARGQPLEPKVYTMGPPREELSSRSVSLTCMINGFYPSDISVEWEKNGKAEDNYKTTPTVLDSDGSYFLYSKLSVPTSEWQRGDVFTCSVMHEALHNHYTQKSISRSPGK
light: MDTRAPTQLLGLLLLWLPGARCAFELTQTPSSVSEPVGGTVTIKCQASQSIYSYFSWYQQKPGQPPKRLIYQASTLASGVPSRFKGSGSGTDFTLTISDLECADAATYYCQNNYGRGSGSYFFGFGGGTEVVVKGDPVAPTVLIFPPAADQVATGTVTIVCVANKYFPDVTVTWEVDGTTQTTGIENSKTPQNSADCTYNLSSTLTLTSTQYNSHKEYTCKVTQGTTSVVQSFNRGDC
As for B4, the “Inhibition” value in experiment [1] is “Yes”. Besides, in experiment [2], the “I Domain binding” value is “No”. Moreover, the “Murine α11β1 ELISA” value in experiment [3] was “No”. Moreover, the “MF FACS” value in experiment [4] is recorded as “Yes”. In addition, the “Human α11β1 ELISA” value in experiment [5] is given as “Yes”. Besides, in experiment [6], the “HPF FACS” value is given as “No”.

(Values after patent US12460006B2, “Antibodies against integrin alpha 11 beta 1” (Momenta Pharmaceuticals, Inc., priority 2019, dated 2025).)
